First the molecules themselves.
T1: MAGE-A1 peptide on HLA-A*02:01 (human)
T1 peptide: KVLEYVIKV

B1: ht27M1004 (TCR, V domains shown)
Valpha: GEDVEQSLFLSVREGDSSVINCTYTDSSSTYLYWYKQEPGAGLQLLTYIFSNMDMKQDQRLTVLLNKKDKHLSLRIADTQTGDSAIYFCAGSGGGTDKLIFGTGTRLQVFP
Vbeta: GAVVSQHPSWVICKSGTSVKIECRSLDFQATTMFWYRQFPKQSLMLMATSNEGSKATYEQGVEKDKFLINHASLTLSTLTVTSAHPEDSSFYICSAREPGQGPFEQYFGPGTRLTVT
B2: ht27M1387 (TCR, V domains shown)
Valpha: B1 Valpha
Vbeta: B1 Vbeta with Q29P, A30I, T31E, T32R, F104Y
B3: ht27M1170 (TCR, V domains shown)
Valpha: B1 Valpha
Vbeta: B1 Vbeta with S95H, F104Y
B4: ht27M1018 (TCR, V domains shown)
Valpha: B1 Valpha
Vbeta: B1 Vbeta with N51D, E52Y, G53Q, S54T, K55C, A56V, Q101G
B5: ht27M1245 (TCR, V domains shown)
Valpha: B1 Valpha with S29Q
Vbeta: B1 Vbeta with F104Y
B6: ht27M1013 (TCR, V domains shown)
Valpha: B1 Valpha
Vbeta: B1 Vbeta with Q101S
B7: ht27M1243 (TCR, V domains shown)
Valpha: B1 Valpha with S29L
Vbeta: B1 Vbeta with F104Y
B8: ht27M1011 (TCR, V domains shown)
Valpha: B1 Valpha
Vbeta: B1 Vbeta with N51D, E52Y, G53Q, S54T, K55C, A56V, F104W
B9: ht27M1369 (TCR, V domains shown)
Valpha: B1 Valpha with S51A, N52F, M53E, D54S
Vbeta: B1 Vbeta with F104Y
B10: ht27M1378 (TCR, V domains shown)
Valpha: B1 Valpha with T25A, S27Y, S28L
Vbeta: B1 Vbeta with F104Y
B11: ht27M1226 (TCR, V domains shown)
Valpha: B1 Valpha with S28L
Vbeta: B1 Vbeta with F104Y
B12: ht27M1002 (TCR, V domains shown)
Valpha: B1 Valpha
Vbeta: B1 Vbeta with Q101G, F104Y
B13: ht27M1290 (TCR, V domains shown)
Valpha: B1 Valpha
Vbeta: GAVVSQHPSWVICKSGTSVKIECRSLDFQATTMFWYRQFPKQSLMLMATSNEGSKATYEQGVEKDKFLINHASLTLSTLTVTSAHPEDSSFYICSARVNDGTYEQYFGPGTRLTVT
B14: ht27M1001 (TCR, V domains shown)
Valpha: B1 Valpha
Vbeta: B1 Vbeta with N51D, E52Y, G53Q, S54T, K55C, A56V, F104Y
B15: ht27M1010 (TCR, V domains shown)
Valpha: B1 Valpha
Vbeta: B1 Vbeta with N51D, E52Y, G53Q, S54T, K55C, A56V, F104L
B16: ht27M1414 (TCR, V domains shown)
Valpha: B1 Valpha with I49T, F50W, S51P, N52H
Vbeta: B1 Vbeta with F104Y
B17: ht27M1398 (TCR, V domains shown)
Valpha: B1 Valpha
Vbeta: B1 Vbeta with S50T, E52L, G53P, F104Y
B18: ht27M1557 (TCR, V domains shown)
Valpha: B1 Valpha
Vbeta: B1 Vbeta with G102E, P103H, F104L, E105I
B19: ht27M1166 (TCR, V domains shown)
Valpha: B1 Valpha
Vbeta: B1 Vbeta with S95Q, F104Y
B20: ht27M1240 (TCR, V domains shown)
Valpha: B1 Valpha with S29M
Vbeta: B1 Vbeta with F104Y
B21: ht27M1457 (TCR, V domains shown)
Valpha: B1 Valpha
Vbeta: B1 Vbeta with S50T, N51D, E52Y, F104Y
B22: ht27M1128 (TCR, V domains shown)
Valpha: B1 Valpha
Vbeta: B1 Vbeta with S95L, F104Y
B23: ht27M1005 (TCR, V domains shown)
Valpha: B1 Valpha
Vbeta: B1 Vbeta with F104L
B24: ht27M1006 (TCR, V domains shown)
Valpha: B1 Valpha
Vbeta: B1 Vbeta with F104W
B25: ht27M1019 (TCR, V domains shown)
Valpha: B1 Valpha
Vbeta: B1 Vbeta with N51D, E52Y, G53Q, S54T, K55C, A56V, Q101S
B26: ht27M1009 (TCR, V domains shown)
Valpha: B1 Valpha
Vbeta: B1 Vbeta with N51D, E52Y, G53Q, S54T, K55C, A56V
B27: ht27M1285 (TCR, V domains shown)
Valpha: B1 Valpha with N52F
Vbeta: B1 Vbeta with F104Y
B28: ht27M1012 (TCR, V domains shown)
Valpha: B1 Valpha
Vbeta: B1 Vbeta with Q101G

Changes are numbered by the printed parent chain.

The target of one test is MAGE-A1 target antigen peptide … presented by HLA-A*02:01 on cells (human). Put plainly: cell-based or functional assay. Further details: EC50 Enhancement Factor: unit not given beside the values.
Turning to B1, the EC50 Enhancement Factor turned out to be 944 and the EC50 Value (M), JKR9 reporter activation by peptide-loaded T2 cells is 1.76e-08 M.

On to B2, for which the EC50 Enhancement Factor came to 131 and the EC50 Value (M), JKR9 reporter activation by peptide-loaded T2 cells was found to be 1.28e-07 M.

Regarding B3, the EC50 Enhancement Factor came to 39 and the EC50 Value (M), JKR9 reporter activation by peptide-loaded T2 cells is 4.25e-07 M.

B4: the EC50 Enhancement Factor stood at 262 and the EC50 Value (M), JKR9 reporter activation by peptide-loaded T2 cells came to 6.36e-08 M.

Consider B5, for which the EC50 Enhancement Factor came out at 30 and the EC50 Value (M), JKR9 reporter activation by peptide-loaded T2 cells was 5.54e-07 M.

In the case of B6, the EC50 Enhancement Factor was 841 and the EC50 Value (M), JKR9 reporter activation by peptide-loaded T2 cells stood at 1.98e-08 M.

Turning to B7, the EC50 Enhancement Factor was determined as 56 and the EC50 Value (M), JKR9 reporter activation by peptide-loaded T2 cells was determined as 2.98e-07 M.

As to B8, the EC50 Enhancement Factor turned out to be 2020 and the EC50 Value (M), JKR9 reporter activation by peptide-loaded T2 cells amounted to 8.24e-09 M.

B9: the EC50 Enhancement Factor worked out at 218 and the EC50 Value (M), JKR9 reporter activation by peptide-loaded T2 cells was found to be 7.66e-08 M.

Consider B10, for which the EC50 Enhancement Factor was 225 and the EC50 Value (M), JKR9 reporter activation by peptide-loaded T2 cells was 7.4e-08 M.

In the case of B11, the EC50 Enhancement Factor came to 28 and the EC50 Value (M), JKR9 reporter activation by peptide-loaded T2 cells came to 5.88e-07 M.

As to B12, the EC50 Enhancement Factor is 12 and the EC50 Value (M), JKR9 reporter activation by peptide-loaded T2 cells was determined as 1.36e-06 M.

As for B13, the EC50 Enhancement Factor was found to be 711 and the EC50 Value (M), JKR9 reporter activation by peptide-loaded T2 cells amounted to 3.24e-08 M.

On to B14, for which the EC50 Enhancement Factor was determined as 388 and the EC50 Value (M), JKR9 reporter activation by peptide-loaded T2 cells worked out at 4.28e-08 M.

In the case of B15, the EC50 Enhancement Factor is 820 and the EC50 Value (M), JKR9 reporter activation by peptide-loaded T2 cells was found to be 2.03e-08 M.

On to B16, for which the EC50 Enhancement Factor is 739 and the EC50 Value (M), JKR9 reporter activation by peptide-loaded T2 cells worked out at 2.25e-08 M.

Regarding B17, the EC50 Enhancement Factor worked out at 316 and the EC50 Value (M), JKR9 reporter activation by peptide-loaded T2 cells is 5.28e-08 M.

As to B18, the EC50 Enhancement Factor amounted to 1120 and the EC50 Value (M), JKR9 reporter activation by peptide-loaded T2 cells worked out at 1.49e-08 M.

B19: the EC50 Enhancement Factor was found to be 47 and the EC50 Value (M), JKR9 reporter activation by peptide-loaded T2 cells came out at 3.55e-07 M.

With B20, the EC50 Enhancement Factor came to 151 and the EC50 Value (M), JKR9 reporter activation by peptide-loaded T2 cells was found to be 1.1e-07 M.

Turning to B21, the EC50 Enhancement Factor stood at 352 and the EC50 Value (M), JKR9 reporter activation by peptide-loaded T2 cells is 4.73e-08 M.

B22: the EC50 Enhancement Factor stood at 422 and the EC50 Value (M), JKR9 reporter activation by peptide-loaded T2 cells is 3.95e-08 M.

For the molecule B23, the EC50 Enhancement Factor was determined as 11 and the EC50 Value (M), JKR9 reporter activation by peptide-loaded T2 cells stood at 1.55e-06 M.

Consider B24, for which the EC50 Enhancement Factor came out at 445 and the EC50 Value (M), JKR9 reporter activation by peptide-loaded T2 cells worked out at 3.74e-08 M.

On to B25, for which the EC50 Enhancement Factor was found to be 751 and the EC50 Value (M), JKR9 reporter activation by peptide-loaded T2 cells was found to be 2.21e-08 M.

Consider B26, for which the EC50 Enhancement Factor was 2720 and the EC50 Value (M), JKR9 reporter activation by peptide-loaded T2 cells was found to be 6.12e-09 M.

On to B27, for which the EC50 Enhancement Factor came out at 281 and the EC50 Value (M), JKR9 reporter activation by peptide-loaded T2 cells stood at 5.93e-08 M.

B28: the EC50 Enhancement Factor was 637 and the EC50 Value (M), JKR9 reporter activation by peptide-loaded T2 cells was 2.61e-08 M.

The next test concerns the target T1, MAGE-A1 peptide on HLA-A*02:01. As to the kind of experiment: JKR9 reporter + peptide-loaded T2, 16 h; full-length, on cells.
For the molecule B1, the EC50 of peptide was determined as 17.6 nM.

For the molecule B2, the EC50 of peptide was determined as 128 nM.

On to B3, for which the EC50 of peptide was 425 nM.

On to B4, for which the EC50 of peptide was 63.6 nM.

For B5, the EC50 of peptide was 554 nM.

For the molecule B6, the EC50 of peptide is 19.8 nM.

Take B7: the EC50 of peptide is 298 nM.

Take B8: the EC50 of peptide was found to be 8.24 nM.

Consider B9, for which the EC50 of peptide is 76.6 nM.

B10: the EC50 of peptide amounted to 74 nM.

With B11, the EC50 of peptide came to 588 nM.

For the molecule B12, the EC50 of peptide came out at 1360 nM.

Take B13: the EC50 of peptide is 32.4 nM.

On to B14, for which the EC50 of peptide amounted to 42.8 nM.

On to B15, for which the EC50 of peptide came out at 20.3 nM.

Turning to B16, the EC50 of peptide came to 22.5 nM.

As to B17, the EC50 of peptide amounted to 52.8 nM.

With B18, the EC50 of peptide was 14.9 nM.

For B19, the EC50 of peptide amounted to 355 nM.

Consider B20, for which the EC50 of peptide was found to be 110 nM.

Take B21: the EC50 of peptide is 47.3 nM.

Consider B22, for which the EC50 of peptide was determined as 39.5 nM.

For B23, the EC50 of peptide is 1550 nM.

As for B24, the EC50 of peptide came to 37.4 nM.

Take B25: the EC50 of peptide was found to be 22.1 nM.

With B26, the EC50 of peptide was found to be 6.12 nM.

On to B27, for which the EC50 of peptide came out at 59.3 nM.

For the molecule B28, the EC50 of peptide is 26.1 nM.

The record behind these values is patent publication EP4534554A1 (Corregene Biotechnology Co., Ltd., dated 2025).
